Assay results as given in publication PMC2918618, “Characterization of the TnsD-attTn7 complex that promotes site-specific insertion of Tn7” (Mobile DNA, 2010).

Columns and labels:
Test in all cases: EMSA; Gel-shift buffer not given (as described in ref. 6); TnsD stored in 500 mM KCl, 50 mM Tris-HCl pH 8.0, 1 mM EDTA, 2 mM DTT, 25% glycerol
TnsD 1-498 = target: T1, TnsD 1-498 (Escherichia coli (transposon Tn7), UniProt P13991 1-498); conditions: protein: recombinant
T1 sequence: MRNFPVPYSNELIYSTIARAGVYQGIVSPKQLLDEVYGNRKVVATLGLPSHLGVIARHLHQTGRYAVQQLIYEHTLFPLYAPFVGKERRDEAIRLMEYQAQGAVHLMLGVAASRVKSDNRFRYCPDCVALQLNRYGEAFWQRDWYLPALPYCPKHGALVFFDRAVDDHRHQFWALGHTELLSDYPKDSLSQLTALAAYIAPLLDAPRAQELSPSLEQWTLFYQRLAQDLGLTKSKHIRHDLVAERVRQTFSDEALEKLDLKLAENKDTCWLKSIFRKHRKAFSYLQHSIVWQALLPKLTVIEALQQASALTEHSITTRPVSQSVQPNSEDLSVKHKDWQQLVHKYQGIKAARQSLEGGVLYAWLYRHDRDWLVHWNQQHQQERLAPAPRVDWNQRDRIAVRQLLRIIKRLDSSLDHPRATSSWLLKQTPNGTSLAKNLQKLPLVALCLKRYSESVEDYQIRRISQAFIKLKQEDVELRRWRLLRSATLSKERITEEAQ

TnsD 1-480 = target: T2, TnsD 1-480 (Escherichia coli (transposon Tn7), UniProt P13991 1-480); conditions: protein: recombinant
T2 sequence: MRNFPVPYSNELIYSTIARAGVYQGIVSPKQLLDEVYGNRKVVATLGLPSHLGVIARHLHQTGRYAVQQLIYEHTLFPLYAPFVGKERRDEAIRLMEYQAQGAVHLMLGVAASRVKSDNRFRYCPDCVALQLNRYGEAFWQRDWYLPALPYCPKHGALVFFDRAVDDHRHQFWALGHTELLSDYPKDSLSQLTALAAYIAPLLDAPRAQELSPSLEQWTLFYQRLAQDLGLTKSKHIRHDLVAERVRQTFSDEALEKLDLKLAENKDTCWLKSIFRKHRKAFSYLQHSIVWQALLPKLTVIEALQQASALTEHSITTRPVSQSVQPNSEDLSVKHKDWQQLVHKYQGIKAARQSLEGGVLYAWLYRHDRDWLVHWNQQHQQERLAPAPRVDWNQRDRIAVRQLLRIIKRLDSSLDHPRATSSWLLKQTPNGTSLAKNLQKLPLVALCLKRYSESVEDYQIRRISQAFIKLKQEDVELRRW

TnsD 1-490 = target: T3, TnsD 1-490 (Escherichia coli (transposon Tn7), UniProt P13991 1-490); conditions: protein: recombinant
T3 sequence: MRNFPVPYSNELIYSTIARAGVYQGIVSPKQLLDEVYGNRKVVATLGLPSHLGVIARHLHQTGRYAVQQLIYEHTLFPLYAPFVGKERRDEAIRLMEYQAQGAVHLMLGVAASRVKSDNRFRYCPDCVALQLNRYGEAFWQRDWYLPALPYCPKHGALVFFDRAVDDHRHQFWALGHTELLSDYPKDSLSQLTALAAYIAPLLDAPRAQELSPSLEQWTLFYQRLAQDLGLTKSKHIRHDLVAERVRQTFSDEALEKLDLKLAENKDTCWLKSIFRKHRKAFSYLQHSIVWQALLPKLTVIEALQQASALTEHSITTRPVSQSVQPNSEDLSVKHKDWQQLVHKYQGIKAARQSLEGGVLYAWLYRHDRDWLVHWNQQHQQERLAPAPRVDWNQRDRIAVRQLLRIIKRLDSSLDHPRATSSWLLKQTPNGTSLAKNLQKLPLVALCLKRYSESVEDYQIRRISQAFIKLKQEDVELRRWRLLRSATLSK

TnsD 1-350 = target: T4, TnsD 1-350 (Escherichia coli (transposon Tn7), UniProt P13991 1-350); conditions: protein: recombinant
T4 sequence: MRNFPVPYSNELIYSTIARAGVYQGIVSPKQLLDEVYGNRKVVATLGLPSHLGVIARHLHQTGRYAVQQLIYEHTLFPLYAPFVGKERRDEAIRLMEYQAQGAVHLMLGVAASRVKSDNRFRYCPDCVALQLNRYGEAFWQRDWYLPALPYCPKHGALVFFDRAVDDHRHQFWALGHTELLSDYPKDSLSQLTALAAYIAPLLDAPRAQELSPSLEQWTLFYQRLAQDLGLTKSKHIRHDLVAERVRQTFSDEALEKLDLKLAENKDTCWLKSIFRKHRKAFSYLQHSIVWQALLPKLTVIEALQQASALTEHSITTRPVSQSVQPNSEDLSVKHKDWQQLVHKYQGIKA

TnsD C124S = target: T5, TnsD C124S (Escherichia coli (transposon Tn7), UniProt P13991 1-508, C124S); conditions: protein: recombinant; tags: intein-chitin tag, cleaved with DTT
T5 sequence: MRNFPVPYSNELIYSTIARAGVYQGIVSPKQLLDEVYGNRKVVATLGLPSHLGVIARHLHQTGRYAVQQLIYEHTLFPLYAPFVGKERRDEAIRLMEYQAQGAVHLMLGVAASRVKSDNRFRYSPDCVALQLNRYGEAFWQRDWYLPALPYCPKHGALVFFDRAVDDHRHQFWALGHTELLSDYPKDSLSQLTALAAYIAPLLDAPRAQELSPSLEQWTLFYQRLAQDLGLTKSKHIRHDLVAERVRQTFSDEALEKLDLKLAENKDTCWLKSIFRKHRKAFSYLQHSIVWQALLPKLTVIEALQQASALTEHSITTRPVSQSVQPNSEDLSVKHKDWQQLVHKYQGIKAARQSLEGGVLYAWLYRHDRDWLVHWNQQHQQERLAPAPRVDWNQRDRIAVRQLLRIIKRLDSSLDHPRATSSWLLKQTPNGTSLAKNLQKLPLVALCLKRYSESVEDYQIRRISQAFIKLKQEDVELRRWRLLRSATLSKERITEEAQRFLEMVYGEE

B1: attTn7 wt (+23 to +58) (dsDNA)
DNA 1: CCGCGTAACCTGGCAAAATCGGTTACGGTTGAGTAA
DNA 2: TTACTCAACCGTAACCGATTTTGCCAGGTTACGCGG
binding result (TnsD 1-498): no binding
binding result (TnsD 1-480): no binding
binding result (TnsD 1-490): no binding
binding result (TnsD 1-350): no binding
binding signal (TnsD C124S): 0.05 relative to wt
